Experimental findings from article PMC2329594, “A Minimal Fragment of MUC1 Mediates Growth of Cancer Cells” (PLoS ONE, 2008) are described below.

This data set deals with the molecule itself. Description: gold nanoparticle aggregation (colour change); histidine-tagged peptides (100 uM in PBS) on NTA-Ni gold nanoparticles, alone or mixed; colour change after 15 minutes.

B1: MUC1_(SAD (self-aggregation domain)) peptide (peptide, UniProt P15941 1084-1109, looked up)
peptide: GGFLGLSNIKFRPGSVVVQLTLAFRE
notes: MUC1, human; also called N-1084-1109-C; source: synthetic peptide
In the case of B1, the binding result was “binds”.

B2: MUC1_(ecd-EXT) peptide (peptide, UniProt P15941 1101-1148, looked up)
peptide: VQLTLAFREGTINVHDVETQFNQYKTEAASRYNLTISDVSVSDVPFPF
notes: MUC1, human; also called shifted frame peptide; N-1101-1148-C; source: synthetic peptide
On to B2, for which the binding result is given as “binds”.
